Patent US10034836B2, “Formulations of guanylate cyclase C agonists and methods of use” (SYNERGY PHARMACEUTICALS, INC., priority 2008, dated 2018)
Where no end group is shown, it is not given here. [ ]: non-standard residue; d: D form.

Legend:
T84 cells = assay: cGMP synthesis in T84 cells, GCC agonist alone or in combination with PDE inhibitors; type: cell-based, human; details: 100 μM, 30 min
Experimental: FIG. 9: Stimulation of cGMP synthesis in T84 cells by SP-304 (0.1 μM) either alone or in combination with the phosphodiesterase (PDE) inhibitors Sulindac Sulfone (100 μM) or Zaprinast (100 μM). T84 cells were exposed to various treatments, as indicated, for 30 min and the cell lysates were used to determine the intracellular cGMP levels. Data points shown are the average of duplicate measurements.
FIG. 10: Stimulation of cGMP synthesis in T84 cells by SP-304 (0.1 or 1.0 μM) either alone or in combination with incremental concentrations of phosphodiesterase (PDE) inhibitors, as indicated. T84 cells were exposed to various treatments, as indicated, for 30 min and the cell lysates were used to determine the intracellular cGMP levels. Data points shown are the average of duplicate measurements. […]
SS and ZAP in combination with SP-304 or SP-333 were evaluated to see if these PDE inhibitors had any synergistic effects on intracellular accumulation of cGMP (FIG. 9-12). […]
For the results shown in FIG. 9, cyclic GMP synthesis in T84 cells was assessed essentially as described in Shailubhai et al., Cancer Research 60, 5151-5157 (2000). […] Following centrifugation and the addition of NaOH (0.1 N) to neutralize the pH, intracellular cGMP levels were determined in lysates using a cGMP ELISA kit (Cat. No. 581021; Cayman Chemical, Ann Arbor, Mich.). […]

intestinal GC-C receptor = biological target: T1, intestinal GC-C receptor (Homo sapiens, UniProt P25092); assay: Cyclic GMP stimulation assay in T84 cells; type: cell-based; details: 30 min exposure (FIG. 5)
T1 construct: confluent monolayers of T-84 cells in 24-well plates; host or cells: T84 human colon carcinoma cells
Excerpt: FIG. 4: Biological activity of truncated peptides of 16-mer SP-304, as measured by stimulation of cGMP synthesis in T84 cells. SP-338 15-mer peptide is indentical to SP-304 except that it lacks Leu at the C-terminus. SP-327, SP-329 and SP-331 lack Leu at their C-termini relative to their corresponding parents, SP-326, SP-328 and SP-330, respectively. Data points shown are the average of duplicate measurements.
FIG. 5: Stimulation of cGMP synthesis in T84 cells by SP-304 and similar analogs. T84 cells were exposed to test peptides for 30 min and cell lysates were then used to determine intracellular cGMP levels. Data points shown are the average of triplicate measurements±SD.
FIG. 6: Stimulation of cGMP synthesis in T84 cells by SP-339 (linaclotide) and other linaclotide analogs. T84 cells were exposed to test peptides for 30 min and cell lysates were then used to determine intracellular cGMP levels. Data points shown are the average of triplicate measurements±SD.
FIG. 8: Stimulation of cGMP synthesis in T84 cells by the peggylated analogs of SP-333. T84 cells were exposed to the indicated peptides for 30 min and cell lysates were used to determine intracellular cGMP levels. Data points shown are the average of triplicate measurements±SD.
After the 30 min incubation, the medium was aspirated and the reaction was terminated by the addition of 3% perchloric acid. Following centrifugation and the addition of NaOH (0.1 N) to neutralize the pH, intracellular cGMP levels were determined in lysates using a cGMP ELISA kit (Cat. No. 581021; Cayman Chemical, Ann Arbor, Mich.). Peptide incubations were run in duplicate, and samples taken from each incubation were run as duplicates in the ELISA test.
The ability of the GCC agonist peptide to bind to and activate the intestinal GC-C receptor was tested using T84 human colon carcinoma cell line. Human T84 colon carcinoma cells were obtained from the American Type Culture Collection. Cells were grown in a 1:1 mixture of Ham's F-12 medium and Dulbecco's modified Eagle's medium (DMEM) supplemented with 10% fetal bovine serum, 100 U penicillin/ml, and 100 μg/ml streptomycin. The cells were fed fresh medium every third day and split at a confluence of approximately 80%.
Biological activity of the GCC agonist peptides was assayed as previously reported (Shailubhai, et al., Cancer Research 60, 5151-5157 (2000)). Briefly, the confluent monolayers of T-84 cells in 24-well plates were washed twice with 250 μl of DMEM containing 50 mM HEPES (pH 7.4), pre-incubated at 37° C. for 10 min with 250 μl of DMEM containing 50 mM HEPES (pH 7.4) and 1 mM isobutylmethylxanthine (IBMX), followed by incubation with GCC agonist peptides (0.1 nM to 10 µM) for 30 min. The medium was aspirated, and the reaction was terminated by the addition of 3% perchloric acid. Following centrifugation, and neutralization with 0.1 N NaOH, the supernatant was used directly for measurements of cGMP using an ELISA kit (Caymen Chemical, Ann Arbor, Mich.).
An additional strategy to render peptides more resistant towards digestion by digestive proteases is to peggylate them at the N- and C-terminus. The peptide SP-333 was peggylated with the aminoethyloxy-ethyloxy-acetic acid (Aeea) group at the C-terminus (SP-347) or at the N-terminus (SP-350) or at both termini (SP-343). Cyclic GMP synthesis in T84 cells was measured by the method as described above.

[1] = Stability in simulated intestinal fluid (SIF), HPLC analysis; type: in vitro ADME; details: SIF
Experimental: FIG. 2B: HPLC chromatographic spectra of SP-304 samples after incubation with: (A) heat-inactivated SIF for 300 minutes, or (B) SIF for 120 minutes. The arrows show the elution position of SP-304.
FIGS. 7D-1-7D-2: HPLC chromatograms of SP-304 incubated for 0 min in SIF (FIG. 7D-1) and 60 min in SIF (FIG. 7D-2), respectively. The arrows indicate the elution positions of the parent SP-304 peptides. […] These new peptide peaks represent degradation products of SP-304.
FIGS. 7E-1-7-E2: HPLC chromatograms of SP-332 incubated for 0 min in SIF (FIG. 7E-1) and 120 min in SIF (FIG. 7E-2), respectively. The arrows indicate the elution positions of the parent SP-332 peptides.
FIGS. 7F-1-7F-2: HPLC chromatograms of SP-333 incubated for 0 min in SIF (FIG. 7F-1) and 120 min in SIF (FIG. 7F-2), respectively. The arrows indicate the elution positions of the parent SP-333 peptides.
FIGS. 7G-1-7G-5: Incubation of SP-333 with SIF for 2, 6, 12 and 24 hrs. Effect of SIF digestion on the activity of SP-333 in T84 stimulation assay was determined (FIG. 7G-1) and samples were also analyzed by HPLC (FIGS. 7G2-5). The elution positions of the parent peptide and its metabolites are indicated by arrows.
The physical stability of SP-304 peptide exposed to SIF was evaluated by HPLC using the method described for SGF digestion. […]

[2] = Stability in simulated intestinal fluid (SIF), biological activity by cGMP synthesis in T84 cells; type: in vitro ADME; details: SIF, two hour incubation (FIG. 7A)
Experimental: FIG. 2A: Biological activity of SP-304 incubated for varying lengths of time in simulated intestinal fluid (SIF). SP-304 samples were incubated for 0, 30, 60, 90, 150, and 300 min, respectively, and then tested for their ability to stimulate cGMP synthesis in T84 cells. The cGMP stimulation activity in the sample at 0 min of incubation time in SIF was taken as 100% biological activity. The activities of the other SP-304 incubation samples were calculated as the percentage of activity relative to that of the 0 min sample. Data points shown are the average of triplicate measurements±SD.
(§1) FIG. 7A: Biological activity of SP-333 incubated for varying lengths of time in simulated intestinal fluid (SIF). SP-333 samples incubated for 0, 5, 10, 30, 60, and 120 min, respectively, were tested for their ability to stimulate cGMP synthesis in T84 cells. The control sample marked as C120 was produced by incubating SP-333 with heat inactivated SIF for 120 min. Samples from the incubations were removed and heated at 95° C. for 5 min to inactivate digestive enzymes and then used to stimulate cyclic GMP synthesis in T84 cells. The cGMP stimulation activity in the sample at 0 min of incubation time in SIF was taken as 100% biological activity. The activities of the other SP-304 incubation samples were calculated as the percentage of activity relative to that of the 0 min sample. Data points shown are the average of triplicate measurements±SD.
as §1, with “FIG. 7B:” for “FIG. 7A:”, “of SP-332” for “of SP-333”, “incubating SP-332” for “incubating SP-333”
FIG. 7C: Biological activity of SP-304 incubated for varying lengths of time in simulated intestinal fluid (SIF). SP-304 samples incubated for 0, 10, and 60 min, respectively, were tested for their ability to stimulate cGMP synthesis in T84 cells. The control samples marked as C0 and C60 were produced by incubating SP-304 with heat inactivated SIF for 0 and 60 min, respectively. Samples from the incubations were removed and heated at 95° C. for 5 min to inactivate digestive enzymes and then used to stimulate cyclic GMP synthesis in T84 cells. The cGMP stimulation activity in the sample at 0 min of incubation time in SIF was taken as 100% biological activity. The activities of the other SP-304 incubation samples were calculated as the percentage of activity relative to that of the 0 min sample. […]
FIGS. 7G-1-7G-5: Incubation of SP-333 with SIF for 2, 6, 12 and 24 hrs. Effect of SIF digestion on the activity of SP-333 in T84 stimulation assay was determined (FIG. 7G-1) and samples were also analyzed by HPLC (FIGS. 7G2-5). […]
The stability of SP-304 was also evaluated after incubation with simulated intestinal fluid (SIF) by measuring its biological activity and by HPLC analyses (FIGS. 2A & 2B). […]

T1 sequence (P25092 24-1073): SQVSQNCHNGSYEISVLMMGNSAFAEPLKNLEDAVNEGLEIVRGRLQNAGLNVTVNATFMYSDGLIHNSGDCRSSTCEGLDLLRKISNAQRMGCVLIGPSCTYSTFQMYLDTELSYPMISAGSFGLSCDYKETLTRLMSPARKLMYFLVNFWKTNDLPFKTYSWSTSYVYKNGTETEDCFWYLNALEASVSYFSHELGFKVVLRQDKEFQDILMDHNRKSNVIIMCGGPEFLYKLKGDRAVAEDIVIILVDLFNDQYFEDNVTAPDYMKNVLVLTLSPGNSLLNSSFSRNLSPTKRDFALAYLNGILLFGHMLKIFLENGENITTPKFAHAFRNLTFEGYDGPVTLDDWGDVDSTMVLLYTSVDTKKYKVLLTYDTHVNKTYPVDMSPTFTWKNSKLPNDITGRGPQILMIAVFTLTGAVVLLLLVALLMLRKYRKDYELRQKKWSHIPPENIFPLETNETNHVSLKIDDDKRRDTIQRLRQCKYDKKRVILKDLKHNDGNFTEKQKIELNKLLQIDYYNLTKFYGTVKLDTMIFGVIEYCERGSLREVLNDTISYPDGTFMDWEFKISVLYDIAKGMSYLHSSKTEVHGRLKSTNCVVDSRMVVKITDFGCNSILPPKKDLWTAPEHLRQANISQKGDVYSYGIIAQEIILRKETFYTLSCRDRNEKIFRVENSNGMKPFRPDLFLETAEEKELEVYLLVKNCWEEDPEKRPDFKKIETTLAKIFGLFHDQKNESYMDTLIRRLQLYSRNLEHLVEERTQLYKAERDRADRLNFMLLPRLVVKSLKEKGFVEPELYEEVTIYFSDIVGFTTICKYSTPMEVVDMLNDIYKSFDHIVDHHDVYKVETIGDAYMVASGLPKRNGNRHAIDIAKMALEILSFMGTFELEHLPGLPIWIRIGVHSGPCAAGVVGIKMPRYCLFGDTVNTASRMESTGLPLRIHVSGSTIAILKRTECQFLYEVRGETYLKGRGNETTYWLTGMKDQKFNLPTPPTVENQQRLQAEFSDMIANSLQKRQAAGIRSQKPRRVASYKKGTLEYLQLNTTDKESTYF

Compound | intracellular accumulation of cGMP, PDE inhibitor alone (T84 cells) | ability to stimulate cGMP synthesis in T84 cells relative to SP-304 (intestinal GC-C receptor) | HPLC analysis of parent peptide after incubation with SIF ([1]; 120 min) | degradation in SIF ([1]; up to 24 hours (FIG. 7G)) | biological activity remaining after incubation in SIF [2]
CC1=C(CC(=O)O)c2cc(F)ccc2/C1=C\c1ccc(S(C)(=O)=O)cc1 [Sulindac Sulfone] | did not enhance | – | – | – | –
dAsn^1-Asp^2-Glu^3-Cys^4-Glu^5-Leu^6-Cys^7-Val^8-Asn^9-Val^10-Ala^11-Cys^12-Thr^13-Gly^14-Cys^15-dLeu^16 ([dN]DECELCVNVACTGC[dL]; disulfide (positions not given here); also: two disulfides, pairing not given here) [SP-333] | – | comparable ability | remained virtually intact | very little degradation | ~100%
